Positions of bridges follow the written chain, without caps; N, C: chain ends. No end group written: not given here.

The target of test [1] is bovine serum albumin (bovine) (UniProt P02769). Description: phage ELISA, BSA only, 10^8 phagemid per well. A general note: ELISA stands for enzyme-linked immunosorbent assay.
Test [2] shares this target. Description: phage ELISA, BSA only, 10^9 phagemid per well.
Test [3] has the same target. Description: phage ELISA, BSA only, 10^10 phagemid per well.
Test [4] concerns the target unrelated control antibody. In words: phage ELISA, coated control mAb, 10^8 phagemid per well.
In test [5] the target is unrelated control antibody. In words: phage ELISA, coated control mAb, 10^9 phagemid per well.
In test [6] the target is unrelated control antibody. In words: phage ELISA, coated control mAb, 10^10 phagemid per well.

Sequence of bovine serum albumin (bovine) (P02769 25-607 limits assumed): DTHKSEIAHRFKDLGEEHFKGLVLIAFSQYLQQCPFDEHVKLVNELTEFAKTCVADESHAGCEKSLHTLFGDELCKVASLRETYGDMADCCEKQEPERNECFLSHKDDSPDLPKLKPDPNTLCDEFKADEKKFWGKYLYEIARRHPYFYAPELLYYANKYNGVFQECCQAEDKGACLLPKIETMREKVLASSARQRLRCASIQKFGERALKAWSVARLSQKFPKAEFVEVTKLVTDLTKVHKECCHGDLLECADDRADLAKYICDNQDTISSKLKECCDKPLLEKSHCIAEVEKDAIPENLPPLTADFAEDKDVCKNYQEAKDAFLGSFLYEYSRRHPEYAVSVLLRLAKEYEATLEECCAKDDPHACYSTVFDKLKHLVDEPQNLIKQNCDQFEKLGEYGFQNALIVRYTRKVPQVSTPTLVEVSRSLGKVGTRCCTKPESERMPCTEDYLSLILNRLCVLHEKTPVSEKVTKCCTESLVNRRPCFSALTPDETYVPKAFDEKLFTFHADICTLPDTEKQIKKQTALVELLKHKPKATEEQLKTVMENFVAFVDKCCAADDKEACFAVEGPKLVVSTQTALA

B1: phagemid CS1-2p (phage-displayed disulfide cyclized 13 mer peptide) (peptide)
peptide: CSLFYLWDQDRCS
modifications: disulfide 1-12 (inferred); also: displayed on phage (phagemid), coat fusion not given here
Consider B1, for which the ELISA (absorbance units) (absorbance units) in test [1] turned out to be 0.264; in test [2], 0.277; in test [3], 0.327; in test [4] it was 0.188; in test [5], 0.199; in test [6], 0.228.

B2: phagemid CS1-31p (phage-displayed disulfide cyclized 13 mer peptide) (peptide)
peptide: CSFFYSLCYCWCS
modifications: disulfide (positions not given here); also: four Cys, disulfide pairing not given here
As for B2, the ELISA (absorbance units) (absorbance units) was determined as 0.109 in test [1]; 0.114 in test [2]; 0.112 in test [3]; 0.116 in test [4]; 0.118 in test [5]; 0.125 in test [6].

B3: phagemid CS1-29p (phage-displayed disulfide cyclized 13 mer peptide) (peptide)
peptide: CSGLYPWDYFMCS
modifications: disulfide 1-12 (inferred); also: displayed on phage (phagemid)
Consider B3, for which the ELISA (absorbance units) (absorbance units) in test [1] was found to be 0.127; in test [2], 0.147; in test [3], 0.141; in test [4], 0.125; in test [5] it was 0.136; in test [6], 0.148.

B4: phagemid CS1-6p (phage-displayed disulfide cyclized 13 mer peptide) (peptide)
peptide: CSFRYLWDQDRCS
modifications: disulfide 1-12 (inferred); also: displayed on phage (phagemid)
For the molecule B4, the ELISA (absorbance units) (absorbance units) in test [1] turned out to be 0.254; in test [2] it was 0.27; in test [3], 0.275; in test [4], 0.173; in test [5] it was 0.172; in test [6], 0.203.

B5: phagemid CS1-11p (phage-displayed disulfide cyclized 13 mer peptide) (peptide)
peptide: CSFRYQWDMFRCS
modifications: disulfide 1-12 (inferred); also: displayed on phage (phagemid)
For the molecule B5, the ELISA (absorbance units) (absorbance units) was 0.268 in test [1]; 0.278 in test [2]; 0.304 in test [3]; 0.252 in test [4]; 0.258 in test [5]; 0.242 in test [6].

B6: phagemid CS1-9p (phage-displayed disulfide cyclized 13 mer peptide) (peptide)
peptide: CSGLYPWDMFRCS
modifications: disulfide 1-12 (inferred); also: displayed on phage (phagemid)
As to B6, the ELISA (absorbance units) (absorbance units) in test [1] stood at 0.216; in test [2] it was 0.22; in test [3] it was 0.221; in test [4] it was 0.209; in test [5], 0.204; in test [6] it was 0.213.

These data come from US20140147868A1.
